Laboratory results reported in paper PMC8068247, “Innovative and Highly Sensitive Detection of Clostridium perfringens Enterotoxin Based on Receptor Interaction and Monoclonal Antibodies” (Toxins, 2021).
Read-outs that look alike come from different tables or passages of the source.

Legend:
[1] = molecular target: Clostridium perfringens enterotoxin (CPE) (Clostridium perfringens) (UniProt P01558); conditions: cited from earlier work
[2] = molecular target: Clostridium perfringens enterotoxin (CPE) (Clostridium perfringens) (UniProt P01558); conditions: cited from earlier work; remark: listed apart in the source
[3] = molecular target: T1, recombinant Clostridium perfringens enterotoxin (CPE) (aa 26–319, wild type) (Clostridium perfringens, UniProt P01558 26-319); assay: SPR; […], multi-cycle, 120 s association, 1200 s dissociation; HBS-EP+ pH 7.4, 25 °C; Biacore T200; 1:1 Langmuir fit; conditions: both partners purified
T1 construct: also called CPE 26–319; holo-CPE
T1 sequence: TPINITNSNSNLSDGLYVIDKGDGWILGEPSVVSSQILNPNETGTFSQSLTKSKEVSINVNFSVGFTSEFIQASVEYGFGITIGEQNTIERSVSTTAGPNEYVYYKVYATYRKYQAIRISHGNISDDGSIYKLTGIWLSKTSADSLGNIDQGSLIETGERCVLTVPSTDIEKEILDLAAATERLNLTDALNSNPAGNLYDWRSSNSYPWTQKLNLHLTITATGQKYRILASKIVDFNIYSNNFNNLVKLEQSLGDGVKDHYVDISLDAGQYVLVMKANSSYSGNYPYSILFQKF

## claudin-4 (from UniProt O35054)
[1]
  Kd: 9 nM

## claudin-4 (from UniProt O14493)
[2]
  Kd: 3.4 nM

B1: GST human claudin-4 fusion protein (GST-ShCLDN4H8) (receptor)
chain: MASMGLQVMGIALAVLGWLAVMLCCALPMWRVTAFIGSNIVTSQTIWEGLWMNCVVQSTGQMQCKVYDSLLALPQDLQAARALVIISIIVAALGVLLSVVGGKCTNCLEDESAKAKTMIVAGVVFLLAGLMVIVPVSWTAHNIIQDFYNPLVASGQKREMGASLYVGWAASGLLLLGGGLLCCNCPPRTDKPYSAKYSAARSAAASNYV
[3]
  Kd: 0.38 nM
  koff: 0.00021 s⁻¹
  kon: 560000 M⁻¹ s⁻¹
